Data as given in US20260008865A1.

Assays:
[1] = biological target: SelSP1 (PSGL-1 sulfopeptide); assay: SPR; SelSP1 surface (FC2) blocked with 40 µg/mL antibody, then 990 nM CCL27 as competitor; Rep. 1
[2] = biological target: SelSP1 (PSGL-1 sulfopeptide); assay: SPR; SelSP1 surface (FC2) blocked with 40 µg/mL antibody, then 990 nM CCL27 as competitor; Rep. 2
[3] = biological target: SelSP1 (PSGL-1 sulfopeptide); assay: SPR; summary sentence in the description; target printed as PSGL-1, but the worked example used the PSGL-1 sulfopeptide SelSP1
[4] = biological target: SelSP1 (PSGL-1 sulfopeptide); assay: SPR; SelSP1 surface (FC3) blocked with 40 µg/mL antibody, then 990 nM CCL27 as competitor; Rep. 3
[5] = biological target: SelSP1 (PSGL-1 sulfopeptide); assay: SPR; SelSP1 surface blocked with 40 µg/mL antibody, then 990 nM CCL27 as competitor; average over FC2 and FC3 replicates
[6] = biological target: SelSP1 (PSGL-1 sulfopeptide); assay: SPR (SensiQ Pioneer), antibody captured on Protein G, SelSP1 as analyte, 25 °C, 1:1 model
[7] = biological target: SelSP1 (PSGL-1 sulfopeptide); assay: SPR; SelSP1 surface (FC3) blocked with 40 µg/mL antibody, then 990 nM CCL27 as competitor; Rep. 1
[8] = biological target: SelSP1 (PSGL-1 sulfopeptide); assay: SPR; SelSP1 surface (FC2) blocked with 40 µg/mL antibody, then 990 nM CCL27 as competitor; Rep. 3
[9] = biological target: SelSP1 (PSGL-1 sulfopeptide); assay: SPR; SelSP1 surface (FC3) blocked with 40 µg/mL antibody, then 990 nM CCL27 as competitor; Rep. 2

B1: Parental antibody (antibody, V domains shown)
VH: DVQLVESGGGLVQPGGSRKLSCAASGFTFSSFGMHWVRQAPEKGLEWVAYISSASSTIYYADTVKGRFTISRDNPKNTLFLQMTSLRSEDTAMYYCASSYGYWGQGTTLTVSS
VL: DVVMTQTPLSLPVSLGDQASISCRSSRSLVHSNGNTYLHWYLQKPGQSPQLLIYKVSNRFSGVPDRFSGSGSGTDFTLKISRVEAEDLGVYFCSQTTHVPLTFGAGTRLELKR
For B1, the Percent CCL27 Inhibition [1] was 57.1%, the Percent CCL27 Inhibition [2] was 50.6% and the Kd [3] was 16.6 nM. It also gave a Percent CCL27 Inhibition [4] of 47%, a Percent CCL27 Inhibition (Avg.) [5] of 50% and a Kd [6] of 16.4 nM. For the same binder, the koff [6] was 0.00497 s⁻¹, the kon [6] was 303000 M⁻¹ s⁻¹ and the Percent CCL27 Inhibition [7] was 50.5%. For the same binder, the Percent CCL27 Inhibition [8] was 53.5% and the Percent CCL27 Inhibition [9] was 43.1%.
